Experiments:
[1] = biological target: DSA polymerase K276C,Q451C (Bacillus stearothermophilus) (UniProt Q04957); experiment: BLI; settings: first round 1.75 vs 0.9; second round after incorporation 1.60; 300 nM, 100 mM KCl, 320 mM K-glutamate, 2 mM SrCl2; lower binary and ternary signal than CBT in …; scale: ratio correct to highest incorrect signal
[2] = biological target: TEE polymerase K276C,Q307E,Q451C (Bacillus stearothermophilus) (UniProt Q04957); experiment: BLI; settings: first round 1.10 vs 0.4; second round after incorporation 4.83; very low binary signal; 900 nM, 100 mM KCl, 320 mM K-glutamate, 2 mM SrCl2; scale: ratio correct to highest incorrect signal

**Q.** Which binding signal [1] does the source give for “primed template, next correct nucleotides AT (Examples 3 and 5)” here?
**A.** The binding signal was 1.95.

**Q.** And the binding signal [2]?
**A.** Its binding signal is 2.75.
